Target: T1, SsoSSB1-114 (Sulfolobus solfataricus, UniProt Q97W73 1-114)
T1 sequence: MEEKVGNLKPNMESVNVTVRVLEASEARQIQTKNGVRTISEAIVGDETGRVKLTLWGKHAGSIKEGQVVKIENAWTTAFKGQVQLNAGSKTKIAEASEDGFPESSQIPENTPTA
Assay: ITC; 25 C; n = 1.009; Buffer A: 100 mM NaCl, 20 mM MES pH 6.5; ITC at 25 C (500 uM dA15 into 50 uM protein); NMR with 10% D2O at 25 and 50 C (SsoSSB12-114 at 25 C only)
Conditions: protein: recombinant; tags: C-terminal TEV-His6 vector; single strand

AAAAAAAAAAAAAAA (ssDNA) [dA(15)]
Kd: 1750 nM

— article PMC8954794, “NMR Structure and Biophysical Characterization of Thermophilic Single-Stranded DNA Binding Protein from Sulfolobus Solfataricus”
